In patent US20150344540A1, “NOVEL GLP-1 RECEPTOR AGONISTS WITH CHOLESTEROL EFFLUX ACTIVITY” (NOVO NORDISK A/S, priority 2012, published 2015):
Where no end group is shown, it is not given here. [ ]: non-standard residue; d: D form. Aib = CC(C)(N)C(=O)O

B1: [Aib8,Glu23,Lys24,Val25,Glu30,His31,Glu34,Lys35,Phe36,Lys37]-GLP-1-(7-37)-peptidyl-Glu-Phe-Phe amide (peptide)
peptide: H[Aib]EGTFTSDVSSYLEGEKVKEFIEHLVEKFKEFF-NH2
modifications: N-terminus assumed
SMILES: CC[C@H](C)[C@H](NC(=O)[C@H](Cc1ccccc1)NC(=O)[C@H](CCC(=O)O)NC(=O)[C@H](CCCCN)NC(=O)[C@@H](NC(=O)[C@H](CCCCN)NC(=O)[C@H](CCC(=O)O)NC(=O)CNC(=O)[C@H](CCC(=O)O)NC(=O)[C@H](CC(C)C)NC(=O)[C@H](Cc1ccc(O)cc1)NC(=O)[C@H](CO)NC(=O)[C@H](CO)NC(=O)[C@@H](NC(=O)[C@H](CC(=O)O)NC(=O)[C@H](CO)NC(=O)[C@@H](NC(=O)[C@H](Cc1ccccc1)NC(=O)[C@@H](NC(=O)CNC(=O)[C@H](CCC(=O)O)NC(=O)C(C)(C)NC(=O)[C@@H](N)Cc1c[nH]cn1)[C@@H](C)O)[C@@H](C)O)C(C)C)C(C)C)C(=O)N[C@@H](CCC(=O)O)C(=O)N[C@@H](Cc1c[nH]cn1)C(=O)N[C@@H](CC(C)C)C(=O)N[C@H](C(=O)N[C@@H](CCC(=O)O)C(=O)N[C@@H](CCCCN)C(=O)N[C@@H](Cc1ccccc1)C(=O)N[C@@H](CCCCN)C(=O)N[C@@H](CCC(=O)O)C(=O)N[C@@H](Cc1ccccc1)C(=O)N[C@@H](Cc1ccccc1)C(N)=O)C(C)C
B2: [Aib8,Val25,Gln27,Gln34,Lys35,Aib36,Lys37]-GLP-1-(7-37)-peptidyl-Gln-Phe-Leu amide (peptide)
peptide: H[Aib]EGTFTSDVSSYLEGQAVKQFIAWLVQK[Aib]KQFL-NH2
modifications: N-terminus assumed
SMILES: CC[C@H](C)[C@H](NC(=O)[C@H](Cc1ccccc1)NC(=O)[C@H](CCC(N)=O)NC(=O)[C@H](CCCCN)NC(=O)[C@@H](NC(=O)[C@H](C)NC(=O)[C@H](CCC(N)=O)NC(=O)CNC(=O)[C@H](CCC(=O)O)NC(=O)[C@H](CC(C)C)NC(=O)[C@H](Cc1ccc(O)cc1)NC(=O)[C@H](CO)NC(=O)[C@H](CO)NC(=O)[C@@H](NC(=O)[C@H](CC(=O)O)NC(=O)[C@H](CO)NC(=O)[C@@H](NC(=O)[C@H](Cc1ccccc1)NC(=O)[C@@H](NC(=O)CNC(=O)[C@H](CCC(=O)O)NC(=O)C(C)(C)NC(=O)[C@@H](N)Cc1c[nH]cn1)[C@@H](C)O)[C@@H](C)O)C(C)C)C(C)C)C(=O)N[C@@H](C)C(=O)N[C@@H](Cc1c[nH]c2ccccc12)C(=O)N[C@@H](CC(C)C)C(=O)N[C@H](C(=O)N[C@@H](CCC(N)=O)C(=O)N[C@@H](CCCCN)C(=O)NC(C)(C)C(=O)N[C@@H](CCCCN)C(=O)N[C@@H](CCC(N)=O)C(=O)N[C@@H](Cc1ccccc1)C(=O)N[C@@H](CC(C)C)C(N)=O)C(C)C
B3: [Aib8,Pro22,Glu23,Val25,Glu34,Lys35,Aib36,Lys37]-GLP-1-(7-37)-peptidyl-Glu-Phe-Leu amide (peptide)
peptide: H[Aib]EGTFTSDVSSYLEPEAVKEFIAWLVEK[Aib]KEFL-NH2
modifications: N-terminus assumed
SMILES: CC[C@H](C)[C@H](NC(=O)[C@H](Cc1ccccc1)NC(=O)[C@H](CCC(=O)O)NC(=O)[C@H](CCCCN)NC(=O)[C@@H](NC(=O)[C@H](C)NC(=O)[C@H](CCC(=O)O)NC(=O)[C@@H]1CCCN1C(=O)[C@H](CCC(=O)O)NC(=O)[C@H](CC(C)C)NC(=O)[C@H](Cc1ccc(O)cc1)NC(=O)[C@H](CO)NC(=O)[C@H](CO)NC(=O)[C@@H](NC(=O)[C@H](CC(=O)O)NC(=O)[C@H](CO)NC(=O)[C@@H](NC(=O)[C@H](Cc1ccccc1)NC(=O)[C@@H](NC(=O)CNC(=O)[C@H](CCC(=O)O)NC(=O)C(C)(C)NC(=O)[C@@H](N)Cc1c[nH]cn1)[C@@H](C)O)[C@@H](C)O)C(C)C)C(C)C)C(=O)N[C@@H](C)C(=O)N[C@@H](Cc1c[nH]c2ccccc12)C(=O)N[C@@H](CC(C)C)C(=O)N[C@H](C(=O)N[C@@H](CCC(=O)O)C(=O)N[C@@H](CCCCN)C(=O)NC(C)(C)C(=O)N[C@@H](CCCCN)C(=O)N[C@@H](CCC(=O)O)C(=O)N[C@@H](Cc1ccccc1)C(=O)N[C@@H](CC(C)C)C(N)=O)C(C)C
B4: [Aib8,Val25,Glu34,Lys35,Aib36,Lys37]-GLP-1-(7-37)-peptidyl-Glu-Phe-Leu amide (peptide)
peptide: H[Aib]EGTFTSDVSSYLEGQAVKEFIAWLVEK[Aib]KEFL-NH2
modifications: N-terminus assumed
SMILES: CC[C@H](C)[C@H](NC(=O)[C@H](Cc1ccccc1)NC(=O)[C@H](CCC(=O)O)NC(=O)[C@H](CCCCN)NC(=O)[C@@H](NC(=O)[C@H](C)NC(=O)[C@H](CCC(N)=O)NC(=O)CNC(=O)[C@H](CCC(=O)O)NC(=O)[C@H](CC(C)C)NC(=O)[C@H](Cc1ccc(O)cc1)NC(=O)[C@H](CO)NC(=O)[C@H](CO)NC(=O)[C@@H](NC(=O)[C@H](CC(=O)O)NC(=O)[C@H](CO)NC(=O)[C@@H](NC(=O)[C@H](Cc1ccccc1)NC(=O)[C@@H](NC(=O)CNC(=O)[C@H](CCC(=O)O)NC(=O)C(C)(C)NC(=O)[C@@H](N)Cc1c[nH]cn1)[C@@H](C)O)[C@@H](C)O)C(C)C)C(C)C)C(=O)N[C@@H](C)C(=O)N[C@@H](Cc1c[nH]c2ccccc12)C(=O)N[C@@H](CC(C)C)C(=O)N[C@H](C(=O)N[C@@H](CCC(=O)O)C(=O)N[C@@H](CCCCN)C(=O)NC(C)(C)C(=O)N[C@@H](CCCCN)C(=O)N[C@@H](CCC(=O)O)C(=O)N[C@@H](Cc1ccccc1)C(=O)N[C@@H](CC(C)C)C(N)=O)C(C)C
B5: [Aib8,Glu23,Val25,Glu34,Lys35,Val36,Lys37]-GLP-1-(7-37)-peptidyl-Glu-Lys amide (peptide)
peptide: H[Aib]EGTFTSDVSSYLEGEAVKEFIAWLVEKVKEK-NH2
modifications: N-terminus assumed
SMILES: CC[C@H](C)[C@H](NC(=O)[C@H](Cc1ccccc1)NC(=O)[C@H](CCC(=O)O)NC(=O)[C@H](CCCCN)NC(=O)[C@@H](NC(=O)[C@H](C)NC(=O)[C@H](CCC(=O)O)NC(=O)CNC(=O)[C@H](CCC(=O)O)NC(=O)[C@H](CC(C)C)NC(=O)[C@H](Cc1ccc(O)cc1)NC(=O)[C@H](CO)NC(=O)[C@H](CO)NC(=O)[C@@H](NC(=O)[C@H](CC(=O)O)NC(=O)[C@H](CO)NC(=O)[C@@H](NC(=O)[C@H](Cc1ccccc1)NC(=O)[C@@H](NC(=O)CNC(=O)[C@H](CCC(=O)O)NC(=O)C(C)(C)NC(=O)[C@@H](N)Cc1c[nH]cn1)[C@@H](C)O)[C@@H](C)O)C(C)C)C(C)C)C(=O)N[C@@H](C)C(=O)N[C@@H](Cc1c[nH]c2ccccc12)C(=O)N[C@@H](CC(C)C)C(=O)N[C@H](C(=O)N[C@@H](CCC(=O)O)C(=O)N[C@@H](CCCCN)C(=O)N[C@H](C(=O)N[C@@H](CCCCN)C(=O)N[C@@H](CCC(=O)O)C(=O)N[C@@H](CCCCN)C(N)=O)C(C)C)C(C)C
B6: [Aib8,Glu22,Glu23,Val25,Glu34,Lys35,Val36,Lys37]-GLP-1-(7-37)-peptidyl-Glu-Leu-Leu amide (peptide)
peptide: H[Aib]EGTFTSDVSSYLEEEAVKEFIAWLVEKVKELL-NH2
modifications: N-terminus assumed
SMILES: CC[C@H](C)[C@H](NC(=O)[C@H](Cc1ccccc1)NC(=O)[C@H](CCC(=O)O)NC(=O)[C@H](CCCCN)NC(=O)[C@@H](NC(=O)[C@H](C)NC(=O)[C@H](CCC(=O)O)NC(=O)[C@H](CCC(=O)O)NC(=O)[C@H](CCC(=O)O)NC(=O)[C@H](CC(C)C)NC(=O)[C@H](Cc1ccc(O)cc1)NC(=O)[C@H](CO)NC(=O)[C@H](CO)NC(=O)[C@@H](NC(=O)[C@H](CC(=O)O)NC(=O)[C@H](CO)NC(=O)[C@@H](NC(=O)[C@H](Cc1ccccc1)NC(=O)[C@@H](NC(=O)CNC(=O)[C@H](CCC(=O)O)NC(=O)C(C)(C)NC(=O)[C@@H](N)Cc1c[nH]cn1)[C@@H](C)O)[C@@H](C)O)C(C)C)C(C)C)C(=O)N[C@@H](C)C(=O)N[C@@H](Cc1c[nH]c2ccccc12)C(=O)N[C@@H](CC(C)C)C(=O)N[C@H](C(=O)N[C@@H](CCC(=O)O)C(=O)N[C@@H](CCCCN)C(=O)N[C@H](C(=O)N[C@@H](CCCCN)C(=O)N[C@@H](CCC(=O)O)C(=O)N[C@@H](CC(C)C)C(=O)N[C@@H](CC(C)C)C(N)=O)C(C)C)C(C)C
B7: [Aib8,Glu23,Glu34,Lys35,Aib36,Lys37]-GLP-1-(7-37)-peptidyl-Glu-Phe-Leu amide (peptide)
peptide: H[Aib]EGTFTSDVSSYLEGEAAKEFIAWLVEK[Aib]KEFL-NH2
modifications: N-terminus assumed
SMILES: CC[C@H](C)[C@H](NC(=O)[C@H](Cc1ccccc1)NC(=O)[C@H](CCC(=O)O)NC(=O)[C@H](CCCCN)NC(=O)[C@H](C)NC(=O)[C@H](C)NC(=O)[C@H](CCC(=O)O)NC(=O)CNC(=O)[C@H](CCC(=O)O)NC(=O)[C@H](CC(C)C)NC(=O)[C@H](Cc1ccc(O)cc1)NC(=O)[C@H](CO)NC(=O)[C@H](CO)NC(=O)[C@@H](NC(=O)[C@H](CC(=O)O)NC(=O)[C@H](CO)NC(=O)[C@@H](NC(=O)[C@H](Cc1ccccc1)NC(=O)[C@@H](NC(=O)CNC(=O)[C@H](CCC(=O)O)NC(=O)C(C)(C)NC(=O)[C@@H](N)Cc1c[nH]cn1)[C@@H](C)O)[C@@H](C)O)C(C)C)C(=O)N[C@@H](C)C(=O)N[C@@H](Cc1c[nH]c2ccccc12)C(=O)N[C@@H](CC(C)C)C(=O)N[C@H](C(=O)N[C@@H](CCC(=O)O)C(=O)N[C@@H](CCCCN)C(=O)NC(C)(C)C(=O)N[C@@H](CCCCN)C(=O)N[C@@H](CCC(=O)O)C(=O)N[C@@H](Cc1ccccc1)C(=O)N[C@@H](CC(C)C)C(N)=O)C(C)C

The binders below were run against human GLP-1 receptor (human, UniProt P43220) (assay: cell-based or functional assay).

| Binder | CRE luciferase EC50, 0% HSA | CRE luciferase EC50, 1% HSA |
| --- | --- | --- |
| HAEGTFTSDVSSYLEGQAAKEFIAWLVEKVKEFL-NH2 [[Glu34,Lys35,Val36,Lys37]-GLP-1-(7-37)-peptidyl-Glu-Phe-Leu amide] | 116 pM | 23 pM |
| B1 | 5420 pM | 1160 pM |
| B2 | 601 pM | 229 pM |
| B3 | 7530 pM | 936 pM |
| HGEGTFTSDVSSYLEEEAVKEFIAWLVEKVKEKL-NH2 [[Gly8,Glu22,Glu23,Val25,Glu34,Lys35,Val36,Lys37]-GLP-1-(7-37)-peptidyl-Glu-Lys-Leu amide] | 300 pM | 76 pM |
| B4 | 161 pM | 74 pM |
| HAEGTFTSDVSSYLEGQAAKEFIAWLVEKVKEFLE-NH2 [[Glu34,Lys35,Val36,Lys37]-GLP-1-(7-37)-peptidyl-Glu-Phe-Leu-Glu amide] | 114 pM | 28 pM |
| HAEGTFTSDVSSYLEGQAAKEFIAWLVEKVKEHL-NH2 [[Glu34,Lys35,Val36,Lys37]-GLP-1-(7-37)-peptidyl-Glu-His-Leu amide] | 40 pM | 10 pM |
| B5 | 43 pM | 14 pM |
| HAEGTFTSDVSSYLEGQKAKEFIAWLVEGVKEFL-NH2 [[Lys24,Glu34,Val36,Lys37]-GLP-1-(7-37)-peptidyl-Glu-Phe-Leu amide] | 702 pM | 112 pM |
| B6 | 439 pM | 110 pM |
| B7 | 163 pM | 143 pM |
